# Measurements reported in paper PMC5680806 (mAbs, 2017).
# Where a chain is given by its changes, count along the chain named.
# B1: Balb-1 (antibody, V domains shown)
# VH: QAYLQQSGPELKKPGETVKISCKASGYTFTNYGMNWVKQAPGKGLKWMGWINTNTGEPTYAEEFKGRFAFSLETSASTAYLQINNLKNEDTATYFCASNYYWYFDVWGAGTTVTVSS
# VL: DVVLTQSPATLSVTPGDSVSLSCRASQSISNNLHWYQQKSHESPRLLIKYASQSISGIPSRFSGSGSGTDFTLSINSVETEDFGMYFCQQSNSWPLTFGAGTKLELK
# B2: SJL-564-1 (antibody, V domains shown)
# VH: QAYLQQSGAELARPGASVKLSCKASGYTFTSYGISWVKQRTGQGLEWIGEIYPRSGNTYYNEKFKGKATLTADKSSSTAYMELRSLTSEDSAVYFCARSTYSNYVYAMDYWGQGTSVTVSS
# VL: DVVLTQTPLSLPVSLGDQASISCRSSQSIVHSNGNTYLEWYLQKPGQSPKLLIYKVSNRFSGVPDRFSGSGSGTDFTLKISRVEAEDLGVYYCFQGSHVPYTFGGGTKLEIK
# B3: SJL-565-1 (antibody, V domains shown)
# VH: QAYLQQSGPELVKPGASVKISCKASGYTFTDYYINWVKQRPGQGLEWIGWIYPGSGNTKYNEKFKGKATLTVDTSSSTAYMQLSSLTSEDSAVYFCARSVYDYDEDWGQGTRVTVSA
# VL: DIVMTQSQKFMSTSVGDRVSVTCKASQNVGTNVAWYQQKPGQSPKALIYSASYRYSGVPDRFTGSGSGTDFTLTISNVQSEDLAEYFCQQYNSYPFTFGSGTKLEIK
# B4: SJL-565-3 (antibody, V domains shown)
# VH: B3 VH with Q82H, L83V, A97S, R98S, V100R, R112L
# VL: B3 VL
# Target: recombinant programmed cell death protein 1 (PD-1) (Homo sapiens, UniProt Q15116)
# Sequence (Q15116 25-170): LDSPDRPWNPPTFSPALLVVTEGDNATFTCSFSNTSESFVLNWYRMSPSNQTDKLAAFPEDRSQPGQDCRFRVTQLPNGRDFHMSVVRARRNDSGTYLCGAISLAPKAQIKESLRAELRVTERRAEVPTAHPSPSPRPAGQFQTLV
row,Binder,binding result
1,B1,binds
2,B2,binds
3,B3,binds
4,B4,binds
